In patent US20090291088A1, “THERAPEUTIC COMBINATIONS OF ANTI-IGF-1R ANTIBODIES AND OTHER COMPOUNDS” (Biogen Idec MA Inc., priority 2008, published 2009):

What was measured:
[1] = biological target: human IGF-1R(1-903)-Fc (human) (UniProt P08069); test: ELISA on hIGF-1R-Fc, competitor Zenon-labelled αIR3
[2] = biological target: human IGF-1R(1-903)-Fc (human) (UniProt P08069); test: ELISA on hIGF-1R-Fc, competitor biotinylated M14-G11
[3] = biological target: human IGF-1R(1-902)-His10 (human) (UniProt P08069); test: ELISA, plate coated with rh-IGF-1R, bound antibody detected with anti-mouse IgG Fc-HRP
[4] = biological target: human IGF-1R(1-903)-Fc (human) (UniProt P08069); test: competition ELISA: biotinylated hIGF-1R-Fc on streptavidin plate, 320 nM human IGF-1 His, detection with anti-His-HRP; blocked ligand human IGF-1 His

αIR3 (antibody)
percent competition (relative to self-competition) [1]: 90 to 100% | percent competition (relative to self-competition) [2]: 90 to 100% | EC50 (read off the curve) [3]: 0.2 nM | IC50 (read off the curve) [4]: 5 nM
